Experimental data taken from patent US11078259B2, “Methods and compositions for promoting thermogenic potential” (Joslin Diabetes Center, Inc., priority 2015, dated 2021).

How the values were obtained:
Assay type in all cases: cell-based, human
[1] = test system: hWAT-SVF and hBAT-SVF progenitors; test: BMP pre-treatment of progenitors, Q-RT-PCR for UCP1 and PPARγ in mature adipocytes
[2] = test system: hWAT-SVF and hBAT-SVF progenitors; test: OCR (Seahorse) in adipocytes from BMP7 pre-treated progenitors; settings: hWAT-SVF from both subjects and hBAT-SVF from Subject 2; 3.3 nM BMP7 pre-exposure 6 days
Method: (§1) FIG. 6B depicts OCR assayed using the Seahorse extracellular flux analyzer in differentiated hWA and hBA from Sub1 and Sub2 that were pre-treated with 3.3 nM BMP7 or vehicle (Veh) for 6 days and then differentiation into mature adipocytes. Equal numbers of progenitors were plated and differentiated. Quantification of OCR in the absence (Basal Res.) and presence of oligomycin (Proton Leak) or FCCP (Max. Res.) are shown. Data are presented as mean±s.e.m. (n=10; two-tailed Student's t-test; *P<0.05, **P<0.01, ***P<0.001). A representative experiment from a total of two independent studies is shown. Data are represented in the same order as appeared in the legend. FIGS. 6C and 6D depict measurement of glucose uptake using ^3H 2-Deoxy-Glucose in differentiated hWA and hBA from Sub1 and Sub2 that were pre-treated with 3.3 nM BMP7 or vehicle (Veh) for 6 days and then differentiation into mature adipocytes. […]
To assess mitochondrial respiration, a Seahorse Extracellular Flux Analyzer (Seahorse Bioscience Inc., North Billerica, Mass.) was used to quantify oxygen consumption rates (OCR) of differentiated human white and brown adipocytes. […] After adipogenic induction for 12 days, OCR was analyzed. […] All data were average of four-time points with 10 wells per time point by quantified in bar plots, and error bars are standard error of the mean (s.e.m.). […]

[3] = test system: hWAT-SVF and hBAT-SVF progenitors; test: Glucose uptake, fatty acid uptake and oxidation in adipocytes from BMP7 pre-treated progenitors; settings: hWAT-SVF from both subjects and hBAT-SVF from Subject 2; 3.3 nM BMP7 pre-exposure 6 days
Method: as §1, with “legend.” for “legend. FIGS. 6C and 6D depict measurement of glucose uptake using ^3H 2-Deoxy-Glucose in differentiated hWA and hBA from Sub1 and Sub2 that were pre-treated with 3.3 nM BMP7 or vehicle (Veh) for 6 days and then differentiation into mature adipocytes.”
After serum starvation in DMEM/H medium containing 1% of BSA for 2-3 h, differentiated human white and brown adipocytes were washed with HEPES buffer. […] Glucose transport was determined by the addition of 2-deoxy-[^3H]glucose (0.1 mM, 0.5 μCi/mL; PerkinElmer Life and Analytical Science, Waltham, Mass.). […] Cells were then lysed in 0.1% SDS, and glucose uptake was assessed in 4 mL of scintillant using Beckman LS6500 scintillation counter (Beckman Coulter, Indianapolis Ind.). Nonspecific 2-deoxy-[^3H]glucose uptake was measured in the presence of cytochalasin B (20 μM) and was subtracted from the total uptake to get specific glucose uptake. Results were expressed as the mean±s.e.m. of the indicated number of experiments. […]

B1: BMP7: Recombinant human BMP7, an inducer of brown adipogenesis (protein, UniProt P18075 293-431, looked up)
Bone morphogenetic protein 7: STGSKQRSQNRSKTPKNQEALRMANVAENSSSDQRQACKKHELYVSFRDLGWQDWIIAPEGYAAYYCEGECAFPLNSYMNATNHAIVQTLVHFINPETVPKPCCAPTQLNAISVLYFDDSSNVILKKYRNMVVRACGCH
For B1, which “UCP1 expression in mature adipocytes” value ([1]; hWAT-SVF from both subjects and hBAT-SVF from Subject 2, 3.3 nM BMP7 pre-exposure 6 days) is on record?
Its value is “increased”.

What about the PPARγ expression ([1]; mature brown adipocytes from Subject 2 only, BMP7 pretreatment) of the same molecule?
The PPARγ expression was “augmented”.

And the “mitochondrial activity in mature adipocytes” value [2]?
Its value is “enhanced”.

What about the “fuel utilization in mature adipocytes” value [3] of the same molecule?
Its value is “enhanced”.
